Experimental data published in patent US20090170219, “Nucleic acid capable of binding to immunoglobulin G and use thereof” (published 2009).

Columns and labels:
IgG1 [1] = target: T1, IgG1 (human, UniProt P01857-1 P01857-1:1-330); assay: SPR; +++ in Table 4; binding not reduced in 500 mM NaCl, 2 mM MgCl2; conditions: tags: Calbiochem; chain copies: 2
IgG1 [2] = target: T1, IgG1; assay: SPR; text says higher than SEQ 17, table shows equal; conditions: tags: Calbiochem; chain copies: 2
Experimental: (§1) Used for the measurements was BIAcore 2000 manufactured by BIAcore. Used as the sensor chip was the SA chip having streptavidin immobilized thereon. Bound thereto was about 1000 RU of 16-residue Poly dT having biotin bound to the 5′ end thereof. The RNA for use as the ligand had 16-residue Poly A added to the 3′ end thereof, and immobilized to the SA chip via a bond between dT and A. The amount immobilized was adjusted to about 1000 RU by injecting 60 μL at a concentration of 0.01 μg/μL. 70 μL of IgG-Fc for analyte (manufactured by Athens Research & Technology), adjusted to 0.6 μM, was injected. The running buffer used had the same components as those of the solution A used in SELEX.
The RNAs were prepared by chemical synthesis (manufactured by Gene Design). Their binding affinities were measured by a surface plasmon resonance method as in Example 1. Used as the IgG was human IgG1 (manufactured by Calbiochem).

IgG = IgG (rabbit, UniProt P01870 P01870:1-323); assay: SPR; conditions: tags: Zymed Laboratories, chain copies: 2, label: 3' A16 tail for immobilisation
Experimental: as §1
(§2) Whether or not the prepared RNA aptamers also have binding affinity for subclasses of IgG other than human IgG1 or for IgG of animal species other than humans was determined using a surface plasmon resonance method. Measurements were performed in the same manner as Example 1 by immobilizing a nucleic acid having 16-residue Poly A added thereto via an A-pT bond, and injecting IgG thereto. Used as the RNA aptamers were the nucleic acids shown by SEQ ID NO:1 and 17. Used as the antibodies were human IgG1 (manufactured by Calbiochem), human IgG2 (manufactured by Calbiochem), human IgG3 (manufactured by Calbiochem), human IgG4 (manufactured by Calbiochem), mouse IgG1 (manufactured by Chemicon International), mouse IgG2a (manufactured by Chemicon International), mouse IgG2b (manufactured by Zymed Laboratories), mouse IgG3 (manufactured by Bethyl Laboratories), rat IgG1 (manufactured by R & D Systems), rat IgG2a. (manufactured by Zymed Laboratories), rat IgG2b. (manufactured by Zymed Laboratories), rat IgG2c (manufactured by UK-Serotec), rabbit IgG (manufactured by Zymed Laboratories), bovine IgG1 (manufactured by Bethyl Laboratories), bovine IgG2 (manufactured by Bethyl Laboratories), chicken IgG (manufactured by Rockland), dog IgG (manufactured by Rockland), cat IgG (manufactured by Bethyl Laboratories), guinea pig IgG (manufactured by Biogenesis), hamster IgG (manufactured by Rockland), and swine IgG (manufactured by Rockland).

IgG2b = IgG2b (mouse, UniProt P01867-2 P01867-2:98-335); assay: SPR; conditions: tags: Zymed Laboratories, chain copies: 2, label: 3' A16 tail for immobilisation
Experimental: as §1, §2

IgG2a = IgG2a (mouse, UniProt P01863 P01863:98-330); assay: SPR; conditions: tags: Chemicon International, chain copies: 2, label: 3' A16 tail for immobilisation
Experimental: as §1, §2

IgG2c = IgG2c (rat, UniProt P20762 P20762:1-329); assay: SPR; conditions: tags: UK-Serotec, chain copies: 2, label: 3' A16 tail for immobilisation
Experimental: as §1, §2

IgG2 = IgG2 (human, UniProt P01859-1 P01859-1:99-326); assay: SPR; conditions: tags: Calbiochem, chain copies: 2, label: 3' A16 tail for immobilisation
Experimental: as §1, §2

IgG3 = IgG3 (human, UniProt P01860-1 P01860-1:99-377); assay: SPR; conditions: tags: Calbiochem, chain copies: 2, label: 3' A16 tail for immobilisation
Experimental: as §1, §2

IgG4 = IgG4 (human, UniProt P01861-1 P01861-1:99-327); assay: SPR; conditions: tags: Calbiochem, chain copies: 2, label: 3' A16 tail for immobilisation
Experimental: as §1, §2

IgG1 [3] = target: T1, IgG1; assay: SPR; solution A; short aptamers fit bivalent 1:2 model better; conditions: tags: Calbiochem; chain copies: 2; label: 3' A16 tail for immobilisation
Protein A = Protein A (UniProt P02976 P02976:37-485); assay: SPR; control; Protein A bound only when IgG1 was on the aptamer; conditions: tags: MP Biomedicals; label: 3' A16 tail for immobilisation; GGUGCU bulge
Experimental: as §1

IgG1 [4] = target: T1, IgG1; assay: SPR; solution A: 145 mM NaCl, 5.4 mM KCl, 1.8 mM CaCl2, 0.8 mM MgCl2, 20 mM Tris pH 7.6; conditions: tags: Calbiochem; chain copies: 2; label: 3' A16 tail for immobilisation; GGUGCU bulge
Experimental: as §1
The dissociation constant was determined by immobilizing an RNA having 16-residue PolyA added to the 3′ end thereof onto a sensor chip via an A-dT bond, injecting different concentrations of IgG (0.6 μM to 0.05 μM), and performing surface plasmon resonance.

T1 sequence (P01857 other isoform, or with tags, fused parts or gaps): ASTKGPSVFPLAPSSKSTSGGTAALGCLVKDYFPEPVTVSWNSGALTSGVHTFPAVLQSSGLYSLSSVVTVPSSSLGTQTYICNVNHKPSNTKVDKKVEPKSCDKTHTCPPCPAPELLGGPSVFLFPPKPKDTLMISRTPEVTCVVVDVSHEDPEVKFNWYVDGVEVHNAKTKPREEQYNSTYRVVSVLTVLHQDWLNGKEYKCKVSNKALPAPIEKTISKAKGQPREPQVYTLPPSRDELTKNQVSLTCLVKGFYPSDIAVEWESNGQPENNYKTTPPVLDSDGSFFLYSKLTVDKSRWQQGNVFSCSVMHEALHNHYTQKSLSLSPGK
Sequence of IgG3 (P01860 other isoform, or with tags, fused parts or gaps): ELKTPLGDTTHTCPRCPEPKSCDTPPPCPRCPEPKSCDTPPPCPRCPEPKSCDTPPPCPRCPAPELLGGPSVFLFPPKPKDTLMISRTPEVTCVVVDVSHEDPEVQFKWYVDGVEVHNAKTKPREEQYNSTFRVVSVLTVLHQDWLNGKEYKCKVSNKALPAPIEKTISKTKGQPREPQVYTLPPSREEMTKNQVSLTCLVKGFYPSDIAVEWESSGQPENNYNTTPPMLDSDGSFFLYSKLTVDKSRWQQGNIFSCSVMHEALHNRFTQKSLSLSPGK
Sequence of IgG4 (P01861 other isoform, or with tags, fused parts or gaps): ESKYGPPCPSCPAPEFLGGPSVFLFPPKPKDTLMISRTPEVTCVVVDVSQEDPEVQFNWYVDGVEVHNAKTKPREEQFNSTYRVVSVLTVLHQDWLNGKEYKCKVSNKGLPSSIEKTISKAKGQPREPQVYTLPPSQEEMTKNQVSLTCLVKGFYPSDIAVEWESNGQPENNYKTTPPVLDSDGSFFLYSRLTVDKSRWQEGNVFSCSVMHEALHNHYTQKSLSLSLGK
Sequence of IgG (P01870 whole entry, one chain of several): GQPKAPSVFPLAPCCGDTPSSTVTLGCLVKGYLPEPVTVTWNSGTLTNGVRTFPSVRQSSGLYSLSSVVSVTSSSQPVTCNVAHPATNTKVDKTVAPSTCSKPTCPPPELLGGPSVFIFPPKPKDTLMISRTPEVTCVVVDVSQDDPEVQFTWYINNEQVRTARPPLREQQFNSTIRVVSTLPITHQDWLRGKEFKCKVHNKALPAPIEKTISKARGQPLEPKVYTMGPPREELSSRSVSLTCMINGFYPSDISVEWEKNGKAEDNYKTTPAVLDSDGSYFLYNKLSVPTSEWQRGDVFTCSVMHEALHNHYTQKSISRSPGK
Sequence of IgG2c (P20762 whole entry, one chain of several): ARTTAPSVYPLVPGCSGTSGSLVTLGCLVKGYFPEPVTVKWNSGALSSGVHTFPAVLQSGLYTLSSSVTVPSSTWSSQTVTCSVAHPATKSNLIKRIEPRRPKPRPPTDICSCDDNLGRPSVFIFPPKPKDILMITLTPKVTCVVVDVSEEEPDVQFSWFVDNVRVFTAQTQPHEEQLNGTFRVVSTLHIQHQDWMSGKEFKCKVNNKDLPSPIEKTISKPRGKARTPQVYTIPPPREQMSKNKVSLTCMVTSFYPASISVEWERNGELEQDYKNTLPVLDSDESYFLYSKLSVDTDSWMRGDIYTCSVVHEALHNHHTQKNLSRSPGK
Sequence of IgG2 (P01859 other isoform, or with tags, fused parts or gaps): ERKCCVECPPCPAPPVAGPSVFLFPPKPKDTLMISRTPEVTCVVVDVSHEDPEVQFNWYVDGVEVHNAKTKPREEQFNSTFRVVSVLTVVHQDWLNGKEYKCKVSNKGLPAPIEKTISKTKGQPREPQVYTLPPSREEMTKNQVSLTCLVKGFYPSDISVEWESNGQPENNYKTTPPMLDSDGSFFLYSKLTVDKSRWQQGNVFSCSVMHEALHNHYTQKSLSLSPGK
Sequence of IgG2a (P01863 98-330, one chain of several): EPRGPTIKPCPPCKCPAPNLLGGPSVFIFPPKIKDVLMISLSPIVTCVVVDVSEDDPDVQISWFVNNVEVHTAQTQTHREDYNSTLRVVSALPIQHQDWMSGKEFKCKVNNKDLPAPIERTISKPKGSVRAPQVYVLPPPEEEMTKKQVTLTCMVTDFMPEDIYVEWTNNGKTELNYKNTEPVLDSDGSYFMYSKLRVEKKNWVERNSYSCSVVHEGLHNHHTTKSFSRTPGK
Sequence of IgG2b (P01867 other isoform, or with tags, fused parts or gaps): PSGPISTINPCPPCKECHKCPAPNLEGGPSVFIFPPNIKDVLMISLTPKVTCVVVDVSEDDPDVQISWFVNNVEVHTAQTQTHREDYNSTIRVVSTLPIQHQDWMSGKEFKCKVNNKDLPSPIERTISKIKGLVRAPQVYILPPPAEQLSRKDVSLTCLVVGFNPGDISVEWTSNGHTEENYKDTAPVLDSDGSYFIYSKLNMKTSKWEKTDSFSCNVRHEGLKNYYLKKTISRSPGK
Sequence of Protein A (P02976 37-485, one chain of several): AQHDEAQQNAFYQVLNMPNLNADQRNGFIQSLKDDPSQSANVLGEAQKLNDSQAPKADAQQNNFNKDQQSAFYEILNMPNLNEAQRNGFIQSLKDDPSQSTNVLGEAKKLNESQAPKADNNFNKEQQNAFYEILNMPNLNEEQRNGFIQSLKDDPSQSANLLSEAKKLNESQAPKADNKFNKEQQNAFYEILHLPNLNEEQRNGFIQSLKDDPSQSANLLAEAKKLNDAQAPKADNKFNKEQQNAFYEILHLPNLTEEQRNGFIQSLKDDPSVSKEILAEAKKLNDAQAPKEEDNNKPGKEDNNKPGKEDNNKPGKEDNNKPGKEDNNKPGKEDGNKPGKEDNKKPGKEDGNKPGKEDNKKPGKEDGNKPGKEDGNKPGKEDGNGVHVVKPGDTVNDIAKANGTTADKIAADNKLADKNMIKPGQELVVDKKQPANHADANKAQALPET

B1: SEQ ID NO:17-7 (23F23) (mixed)
RNA: GGAGGUGCUCCGAAAGGAACUCCAAAAAAAAAAAAAAAA
modifications: deoxy G1 G2 C8 C10 C11 G12-A15 A18 A19 C22 C23 and A16 tail; 2'-F U6 U9 C20 U21; rest 2'-OH
- binding result (IgG1 [1]): binds

Binder: GGAGGUGCUCCGAAAGGAACUCCAAAAAAAAAAAAAAAA (mixed, as 17-7 with 2'-OMe G16) [SEQ ID NO:17-9 (23F32)]
- binding result (IgG1 [2]): binds

Binder: GGAGGUGCUCCGAAAGGAACUCC (ssRNA, 2'-F at all pyrimidines) [SEQ ID NO:17]
- binding result (IgG): no binding
- binding result (IgG2b): no binding
- binding result (IgG2a): no binding
- binding result (IgG2c): no binding
- binding result (IgG2): binds
- binding result (IgG3): binds
- binding result (IgG4): binds
- Kd (IgG1 [3]): 10 nM

B2: SEQ ID NO:1 (ssRNA)
RNA: GGGACACAAUGGACGAGUUACAGGUGCUCCAUCAACAAAAUGUUACAUGGAACUGUAACGGCCGACAUGAGAG
modifications: 2'-F at all pyrimidines
- binding result (IgG; GGUGCU bulge): no binding
- binding result (IgG2b; GGUGCU bulge): no binding
- binding result (IgG2a; GGUGCU bulge): no binding
- binding result (IgG2c; GGUGCU bulge): no binding
- binding result (IgG2; GGUGCU bulge): binds
- binding result (IgG3; GGUGCU bulge): binds
- binding result (IgG4; GGUGCU bulge): binds
- binding result (Protein A): no binding
- Kd (IgG1 [4]): 0.3 nM
